# Data: patent US20200087408A1 (ANAPTYSBIO, published 2020)
# Residue numbers refer to the chain shown, from its start.
# T1: human IL-36R (on cells) (human, UniProt Q9HB29 20-575)
# T1 sequence (looked up): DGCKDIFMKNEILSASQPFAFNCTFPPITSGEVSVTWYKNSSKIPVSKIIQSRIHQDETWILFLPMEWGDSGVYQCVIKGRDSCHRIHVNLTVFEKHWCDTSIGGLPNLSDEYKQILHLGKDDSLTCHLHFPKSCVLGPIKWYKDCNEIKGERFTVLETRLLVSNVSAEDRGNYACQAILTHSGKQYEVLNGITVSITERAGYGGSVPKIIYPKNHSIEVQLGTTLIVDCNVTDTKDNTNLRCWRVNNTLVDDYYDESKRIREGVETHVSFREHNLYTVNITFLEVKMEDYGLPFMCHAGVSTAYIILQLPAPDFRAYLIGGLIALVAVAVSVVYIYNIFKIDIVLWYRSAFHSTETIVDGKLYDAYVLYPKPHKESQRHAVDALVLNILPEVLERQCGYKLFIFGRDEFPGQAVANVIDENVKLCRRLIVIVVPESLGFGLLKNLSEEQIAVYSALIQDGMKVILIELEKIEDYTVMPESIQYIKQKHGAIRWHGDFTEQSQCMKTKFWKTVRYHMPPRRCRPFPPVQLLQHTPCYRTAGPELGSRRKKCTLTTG
# T2: extracellular domain of human IL-36R (human, UniProt Q9HB29 20-335)
# T2 construct: extracellular domain; Immobilised on the chip in the BIACORE assay; soluble and bead-coupled in the KINEXA assay; also called soluble human IL-36R extracellular domain
# T2 sequence (looked up): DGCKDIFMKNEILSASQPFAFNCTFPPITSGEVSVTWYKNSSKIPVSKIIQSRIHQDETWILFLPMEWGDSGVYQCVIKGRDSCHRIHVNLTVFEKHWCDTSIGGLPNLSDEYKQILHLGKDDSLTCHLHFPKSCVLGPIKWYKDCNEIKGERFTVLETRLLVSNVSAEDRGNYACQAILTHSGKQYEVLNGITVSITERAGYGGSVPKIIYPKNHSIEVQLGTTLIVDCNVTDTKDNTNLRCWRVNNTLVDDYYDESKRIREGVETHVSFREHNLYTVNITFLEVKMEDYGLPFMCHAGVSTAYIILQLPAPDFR
# B1: Chimeric 5D3 (APE3849) (antibody, V domains shown)
# VH: QVQLQQSGPELVRPGASVRMSCKASDYTFTNYWMHWVKQRPGQGLEWIGMFDPSNSVTRLNQKFKDKATLNVDKSSNTAYIQFSSLTFEDSAVYYCARTTSMIIGGFAYWGQGTLVTVSS
# VL: DIVMTQAAFSNPVTLGTSASISCRSSKSLLHSNGITYFYWYLQRPGQSPQLLIYQMSNLASGVPDRFSGSGSGTDFTLRISRVEAEDVGIYYCAQNLELPLTFGAGTKLELK
# B2: APE6904 (antibody, V domains shown)
# VH: DLQFQESGPGLVKPSQTLSLTCTVTGYSITADFAWNWIRQPPGKGLEWIGYISYSGDTNYNPSLKSRVTITRDTSKNQFSLKLSSVTAADTAVYFCAIRGPYSFTYWGQGTLVTVSS
# VL: DIQMTQSPSSLSASVGDRVTITCRASQWINNYLNWYQQKPGKAPKLLIYYTSMLHSGVPSRFSPSGSGNDYTFTISSLQPEDIATYYCQQGHTLPWTFGGGTKVEIKR
# notes: also called 18D4 Humanized
# B3: Hzd 18D4 (APE5713) (antibody, V domains shown)
# VH: B2 VH with D1Q, L2V, T25S, A31S, T71S
# VL: DIQMTQSPSSLSASVGDRVTITCRASQDINNYLNWYQQKPGKAPKLLIYYTSRLHSGVPSRFSPSGSGTDYTFTISSLQPEDIATYYCQQGHTLPWTFGGGTKVEIK
# B4: Chimeric 18D4 (APE3847) (antibody, V domains shown)
# VH: DVQFQESGPGLVKPSQSLSLTCTVTGYSITSDFAWNWIRQFPGNKLEWMGYISYSGDTNYNPSLKSRISITRDTSKNQFFLQLNSVTTEDTATYFCAIRGPYSFTYWGPGTLVTVSS
# VL: DIQMTQTTSSLSASLGDRVTINCRASQDINNYLNWYQQKPDGTIRLLIYYTSRLHSGVPSRFSPNGSGTDYSLTINNLEQEDIATYFCQQGHTLPWTFGGGTKLEIK
# B5: Chimeric 1D9 (APE3798) (antibody, V domains shown)
# VH: QVQLQQSGPELVKPGALVKISCKASGFTFTSYDINWVRQRPGQGLEWIGWIYPGDGSTKYNEKFKGKATLTADKSSSTAYMQLSSLTSENSAVYFCTRSFYTMDYWGQGTSVTVSS
# VL: DIVMTQAAPSVPVTPGESVSISCRSSKSLLHSNGNTYLYWFLQRPGQSPQLLISRMSNLASGVPDRFSGSGSGTAFTLRISRVEAEDVGVYYCMQHLEYPFTFGSGTKLEIK
# B6: Hzd 5D3 (APE6060) (antibody, V domains shown)
# VH: QVQLVQSGAEVKKPGASVKVSCKASGYTFTNYWMNWVRQAPRQGLEWMGMFHPTGDVTRLNQKFKDRVTMTRDTSTSTVYMELSSLRSEDTAVYYCARTTSMIIGGFAYWGQGTLVTVSS
# VL: DIVMTQTPLSLSVTPGQPASISCRSSKSLLHRNAITYFYWYLQKPGQPPQLLIYQMSNLASGVPDRFSGSGSGTDFTLKISRVEAEDVGVYYCAQNLELPLTFGGGTKVEIK
# notes: also called 5D3 Humanized
# B7: Hzd 5D3 (APE6194) (antibody, V domains shown)
# VH: B6 VH with T54Y
# VL: B6 VL with Q43H
# notes: also called 5D3 Humanized
# What was measured:
# [1] = biological target: T1, human IL-36R (on cells); assay: cell-based or functional assay
# [2] = biological target: T2, extracellular domain of human IL-36R; assay: KINEXA 3000 solution-phase equilibrium, soluble human IL-36R extracellular domain
# Experimental: The binding affinities of various purified antibodies comprising immunoglobulin heavy chain (HC) and light chain (LC) polypeptides described herein also were evaluated using a KINEXA® 3000 assay (Sapidyne Instruments, Boise, Id.) assays. KINEXA® technology measures the amount of unbound/free antibody molecule in solution phase after incubation with varying concentrations of antigen. Measuring binding events in the solution phase with micro beads for maximized surface area avoids mass transport limitations and mobility effects inherent to methods that measure binding to a solid phase. For each experiment, 50 μg of soluble human or cyno IL-36R extracellular domain was amine-coupled to 50 mg of UltraLink Biosupport beads (Thermo Fisher Scientific, Waltham, Mass.). […] Antibody-antigen solution was then flowed over antigen-coupled beads at a rate of 0.25 mL/min. Free antibody captured by beads was detected using ALEXA FLUOR™ 647-conjugated AffiniPure Donkey Anti-Human IgG (H+L) (Jackson ImmunoResearch, West Grove, Pa.) (500 ng/ml). The KD and/or ABC (active binding concentration) of antibody was obtained from non-linear regression analysis using a one-site homogeneous binding model in the KINEXA™ Pro Software.
# [3] = biological target: T1, human IL-36R (on cells); assay: cell-based or functional assay; remark: listed apart in the source
# [4] = biological target: cynomolgus IL-36R (on cells, allelic variant not stated) (cynomolgus monkey), A0A2K5; assay: cell-based or functional assay
# Chain of cynomolgus IL-36R (on cells, allelic variant not stated) (cynomolgus monkey), A0A2K5 (chain, as listed by the source mutant): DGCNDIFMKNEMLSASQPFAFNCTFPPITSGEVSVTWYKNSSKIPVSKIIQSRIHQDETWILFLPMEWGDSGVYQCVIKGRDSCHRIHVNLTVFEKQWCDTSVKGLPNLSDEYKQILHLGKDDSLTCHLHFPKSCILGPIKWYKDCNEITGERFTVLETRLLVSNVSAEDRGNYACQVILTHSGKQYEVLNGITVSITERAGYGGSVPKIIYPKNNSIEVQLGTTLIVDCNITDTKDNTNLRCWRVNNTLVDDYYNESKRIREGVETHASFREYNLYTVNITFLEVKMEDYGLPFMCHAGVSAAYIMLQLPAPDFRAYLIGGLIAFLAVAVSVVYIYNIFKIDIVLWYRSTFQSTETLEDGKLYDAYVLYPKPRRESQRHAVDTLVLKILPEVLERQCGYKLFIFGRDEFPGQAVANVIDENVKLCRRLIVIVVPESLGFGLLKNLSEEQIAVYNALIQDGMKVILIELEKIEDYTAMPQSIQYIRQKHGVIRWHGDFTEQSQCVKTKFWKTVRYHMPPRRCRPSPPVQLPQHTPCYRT
# [5] = biological target: T2, extracellular domain of human IL-36R; assay: BIACORE T200 SPR, human IL-36R extracellular domain immobilised, antibody injected
# Experimental: The binding affinities of various purified antibodies comprising immunoglobulin heavy chain (HC) and light chain (LC) polypeptides described herein were evaluated using BIACORE™ T200 […] assays. BIACORE™ T200 evaluation software (GE Healthcare, Buckinghamshire, United Kingdom) is used to determine antibody-antigen binding kinetics and affinity. The extracellular domain of human IL-36R was immobilized at approximately 100 RU onto a CMS sensor chip (GE Healthcare, Waukesha, Wis.) using amine coupling chemistry. HBS-EP+ buffer (0.01 M HEPES, 0.15 M NaCl, 3 mM EDTA, 0.05% Polysorbate, pH 7.6) (Teknova, Hollister, Calif.) was used to reconstitute each antibody at various concentrations Each antibody concentration was then injected for two to three minutes over immobilized antigen at a flow rate of 30 μL/min, and allowed to dissociate for 15 minutes. The surface was regenerated with 60 μL of 3 M MgCl₂ after each cycle. Association and dissociation kinetic constants (kon and koff) were fit globally using a 1:1 binding model with mass transport with the BIACORE™ T200 evaluation software in order to report on- and off-rates (ka and kd, respectively), as well as affinities (KD).
# [6] = biological target: T1, human IL-36R (on cells); assay: cell-based or functional assay; remark: listed apart in the source
binder,measurement,setting,value
B1,"EC50 (nM), HEK human IL-36R IL-8 luciferase reporter assay, 20 ng/ml hIL-36β",[1],1.3 nM
same,"EC50 (nM), HEK human IL-36R IL-8 luciferase reporter assay, 200 ng/ml hIL-36γ",[1],3.1 nM
B2,Kd,[2],0.027 nM
B3,"EC50 (nM), HEK human IL-36R IL-8 luciferase reporter assay, 200 ng/ml hIL-36γ",[1],11 nM
B4,"EC50 (nM), HEK human IL-36R IL-8 luciferase reporter assay, 20 ng/ml hIL-36β",[1],4.2 nM
same,"EC50 (nM), HEK human IL-36R IL-8 luciferase reporter assay, 200 ng/ml hIL-36γ",[1],3.6 nM
same,"EC50 (nM), IL-8 secretion by primary human monocytes, human IL-36β",[3],6 nM
same,"EC50 (nM), IL-8 secretion by primary human monocytes, human IL-36γ",[3],3 nM
same,"EC50 (nM), HEK cyno IL-36R IL-8 luciferase reporter assay, 300 ng/ml cIL-36γ",[4],0.51 nM
B5,"EC50 (nM), HEK human IL-36R IL-8 luciferase reporter assay, 20 ng/ml hIL-36β",[1],0.267 nM
same,"EC50 (nM), HEK human IL-36R IL-8 luciferase reporter assay, 200 ng/ml hIL-36γ",[1],0.093 nM
B6,Kd,[5],0.05 nM
same,"EC50 (nM), IL-8 secretion by primary human keratinocytes, 1 ng/ml human IL-36β",[6],0.217 nM
same,"EC50 (nM), IL-8 secretion by primary human keratinocytes, 10 ng/ml human IL-36α",[6],0.08 nM
same,"EC50 (nM), IL-8 secretion by primary human keratinocytes, 100 ng/ml human IL-36γ",[6],0.08 nM
same,"EC50 (nM), HEK human IL-36R IL-8 luciferase reporter assay, 20 ng/ml hIL-36β",[1],0.24 nM
same,"EC50 (nM), HEK human IL-36R IL-8 luciferase reporter assay, 50 ng/ml hIL-36α",[1],0.23 nM
same,"EC50 (nM), HEK human IL-36R IL-8 luciferase reporter assay, 200 ng/ml hIL-36γ",[1],0.35 nM
same,"EC50 (nM), IL-8 secretion by primary human monocytes, human IL-36α",[3],0.081 nM
same,"EC50 (nM), IL-8 secretion by primary human monocytes, human IL-36β",[3],0.9 nM
same,"EC50 (nM), IL-8 secretion by primary human monocytes, human IL-36γ",[3],0.79 nM
same,"EC50 (nM), HEK cyno IL-36R IL-8 luciferase reporter assay, 300 ng/ml cIL-36γ",[4],0.29 nM
same,"EC50 (nM), HEK cyno IL-36R IL-8 luciferase reporter assay, 2 µg/ml cIL-36α",[4],0.067 nM
same,"EC50 (nM), HEK cyno IL-36R IL-8 luciferase reporter assay, 10 µg/ml cIL-36β",[4],0.17 nM
same,"EC50 (nM), IL-8 secretion by primary cynomolgus PBMCs, 10 ng/ml cyno IL-36β",[4],1.7 nM
same,"EC50 (nM), IL-8 secretion by primary cynomolgus PBMCs, 50 ng/ml cyno IL-36α",[4],0.98 nM
same,"EC50 (nM), IL-8 secretion by primary cynomolgus PBMCs, 250 ng/ml cyno IL-36γ",[4],1.4 nM
same,"EC50 (nM), IL-8 secretion by primary cynomolgus keratinocytes, 10 ng/ml cyno IL-36β",[4],1.4 nM
same,"EC50 (nM), IL-8 secretion by primary cynomolgus keratinocytes, 50 ng/ml cyno IL-36α",[4],1.4 nM
same,"EC50 (nM), IL-8 secretion by primary cynomolgus keratinocytes, 250 ng/ml cyno IL-36γ",[4],1 nM
B7,Kd,[5],0.022 nM
same,"EC50 (nM), IL-8 secretion by primary human keratinocytes, 1 ng/ml human IL-36β",[6],0.164 nM
same,"EC50 (nM), IL-8 secretion by primary human keratinocytes, 10 ng/ml human IL-36α",[6],0.105 nM
same,"EC50 (nM), IL-8 secretion by primary human keratinocytes, 100 ng/ml human IL-36γ",[6],0.083 nM
same,"EC50 (nM), HEK human IL-36R IL-8 luciferase reporter assay, 20 ng/ml hIL-36β",[1],0.3 nM
same,"EC50 (nM), HEK human IL-36R IL-8 luciferase reporter assay, 50 ng/ml hIL-36α",[1],0.17 nM
same,"EC50 (nM), HEK human IL-36R IL-8 luciferase reporter assay, 200 ng/ml hIL-36γ",[1],0.45 nM
same,"EC50 (nM), IL-8 secretion by primary human monocytes, human IL-36α",[3],0.09 nM
same,"EC50 (nM), IL-8 secretion by primary human monocytes, human IL-36β",[3],0.105 nM
same,"EC50 (nM), IL-8 secretion by primary human monocytes, human IL-36γ",[3],0.084 nM
same,"EC50 (nM), HEK cyno IL-36R IL-8 luciferase reporter assay, 300 ng/ml cIL-36γ",[4],0.31 nM
same,"EC50 (nM), HEK cyno IL-36R IL-8 luciferase reporter assay, 2 µg/ml cIL-36α",[4],0.073 nM
same,"EC50 (nM), HEK cyno IL-36R IL-8 luciferase reporter assay, 10 µg/ml cIL-36β",[4],0.19 nM
same,"EC50 (nM), IL-8 secretion by primary cynomolgus PBMCs, 10 ng/ml cyno IL-36β",[4],1.6 nM
same,"EC50 (nM), IL-8 secretion by primary cynomolgus PBMCs, 50 ng/ml cyno IL-36α",[4],1.5 nM
same,"EC50 (nM), IL-8 secretion by primary cynomolgus PBMCs, 250 ng/ml cyno IL-36γ",[4],1.6 nM
same,"EC50 (nM), IL-8 secretion by primary cynomolgus keratinocytes, 10 ng/ml cyno IL-36β",[4],2 nM
same,"EC50 (nM), IL-8 secretion by primary cynomolgus keratinocytes, 50 ng/ml cyno IL-36α",[4],1.2 nM
same,"EC50 (nM), IL-8 secretion by primary cynomolgus keratinocytes, 250 ng/ml cyno IL-36γ",[4],1.2 nM
